In patent publication US20150361454:

Target: Prochlorococcus marinus MED4 aldehyde decarbonylase (MED4_ADC), wild type

B1: Prochlorococcus marinus MED4 acyl-ACP reductase (MED4_AAR), wild type (protein)
chain: MAFGLIGHSTSFEDAKRKASLLGFDHIADGDLDVWCTAPPQLVENVEVKSAIGISIEGSYIDSCFVPEMLSRFKTARRKVLNAMELAQKKGINITALGGFTSIIFENFNLLQHKQIRNTSLEWERFTTGNTHTAWVICRQLEMNAPKIGIDLKSATVAVVGATGDIGSAVCRWLINKTGIGELLLVARQKEPLDSLQKELDGGTIKNLDEALPEADIVVWVASMPKTMEIDANNLKQPCLMIDGGYPKNLDEKFQGNNIHVVKGGIVRFFNDIGWNMMELAEMQNPQREMFACFAEAMILEFEKCHTNFSWGRNNISLEKMEFIGAASVKHGFSAIGLDKHPKVLAV
B1 was tested, and the “products detected on coexpression in E. coli (AAR catalytic activity)” value was “when only MED4_AAR is expressed in E. coli no products are detected, and when MED4_AAR and ADC are coexpressed in E. coli the only products detected are alkanes”.
